Measured values published in patent publication US20090239800A1 (GEORGIA TECH RESEARCH CORPORARION, published 2009).
No end group written: not given here.

Legend:
rabbit ClC-2 [1] = molecular target: T1, rabbit ClC-2 (rabbit, UniProt P51789 1-898); assay: dose-response of inhibition of ClC-2 window current, inside-out multi-channel patches, synthetic toxin backfilled in the pipette, VM=-100 mV (FIG. 3B)
T1 construct: whole, on cells; Voltage-gated chloride channel recorded in whole oocytes (TEVC) or in excised inside-out patches; also called ClC-2 channel
T1 sequence (looked up): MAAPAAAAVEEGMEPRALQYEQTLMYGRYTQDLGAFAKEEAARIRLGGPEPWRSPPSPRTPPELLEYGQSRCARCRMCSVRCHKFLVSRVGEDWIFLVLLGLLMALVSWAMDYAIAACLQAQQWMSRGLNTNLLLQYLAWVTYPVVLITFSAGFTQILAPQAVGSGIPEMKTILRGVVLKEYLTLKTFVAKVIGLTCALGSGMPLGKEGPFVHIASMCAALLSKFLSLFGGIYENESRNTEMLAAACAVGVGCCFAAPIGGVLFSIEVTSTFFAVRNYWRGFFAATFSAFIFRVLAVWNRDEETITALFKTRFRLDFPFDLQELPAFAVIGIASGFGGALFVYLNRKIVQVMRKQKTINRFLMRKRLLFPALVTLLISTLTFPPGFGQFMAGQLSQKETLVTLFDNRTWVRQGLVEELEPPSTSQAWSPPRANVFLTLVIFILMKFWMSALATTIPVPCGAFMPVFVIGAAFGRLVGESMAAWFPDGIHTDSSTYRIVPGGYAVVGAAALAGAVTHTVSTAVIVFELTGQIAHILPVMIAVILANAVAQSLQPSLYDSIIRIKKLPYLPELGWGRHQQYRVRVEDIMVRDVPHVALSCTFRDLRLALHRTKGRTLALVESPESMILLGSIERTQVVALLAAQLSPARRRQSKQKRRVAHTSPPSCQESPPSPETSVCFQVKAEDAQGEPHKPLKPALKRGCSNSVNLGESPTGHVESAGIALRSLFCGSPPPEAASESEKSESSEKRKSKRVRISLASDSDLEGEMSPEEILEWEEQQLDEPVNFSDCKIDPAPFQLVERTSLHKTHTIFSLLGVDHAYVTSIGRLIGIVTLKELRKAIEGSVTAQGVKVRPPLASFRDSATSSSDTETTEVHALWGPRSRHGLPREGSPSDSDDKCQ

rabbit ClC-2 [2] = molecular target: T1, rabbit ClC-2; assay: cell-based or functional assay
ClC-1 = assay: cell-based or functional assay

B1: GaTx2 (peptide)
peptide: VSCEDCPDHCSTQKARAKCDNDKCVCEPI
modifications: disulfide (positions not given here)
notes: also called Leiuropeptide II; LPII
Kd (rabbit ClC-2 [1]): 12 pM | latency to first opening upon stepping from VM 0 to -100 mV, 20 pM GaTx2 (rabbit ClC-2 [2]): 7.67 fold increase | ClC-1 tail currents at VM=-120 mV from +60 mV, 10 nM GaTx2 against after washout of toxin (ClC-1): 1.04 fold
